Measurements from paper PMC7415566 (Structure (London, England : 1993), 2020).

T1: human FAM46C (residues 16-358), NTase domain (human, UniProt Q5VWP2 16-358)
T1 sequence (looked up): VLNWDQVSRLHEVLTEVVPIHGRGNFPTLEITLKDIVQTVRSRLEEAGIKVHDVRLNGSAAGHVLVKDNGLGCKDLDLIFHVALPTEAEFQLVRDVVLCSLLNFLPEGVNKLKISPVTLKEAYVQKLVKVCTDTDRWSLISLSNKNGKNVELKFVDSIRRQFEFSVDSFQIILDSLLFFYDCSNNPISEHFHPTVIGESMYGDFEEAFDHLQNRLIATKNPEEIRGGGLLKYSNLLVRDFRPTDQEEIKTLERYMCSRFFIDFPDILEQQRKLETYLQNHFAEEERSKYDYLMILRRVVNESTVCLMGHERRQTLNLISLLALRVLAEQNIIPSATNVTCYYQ

T2: FAM46C E166Q/F193D/F206D (residues 16-350) (human, UniProt Q5VWP2 16-350, E166Q | F193D | F206D)
T2 sequence (looked up): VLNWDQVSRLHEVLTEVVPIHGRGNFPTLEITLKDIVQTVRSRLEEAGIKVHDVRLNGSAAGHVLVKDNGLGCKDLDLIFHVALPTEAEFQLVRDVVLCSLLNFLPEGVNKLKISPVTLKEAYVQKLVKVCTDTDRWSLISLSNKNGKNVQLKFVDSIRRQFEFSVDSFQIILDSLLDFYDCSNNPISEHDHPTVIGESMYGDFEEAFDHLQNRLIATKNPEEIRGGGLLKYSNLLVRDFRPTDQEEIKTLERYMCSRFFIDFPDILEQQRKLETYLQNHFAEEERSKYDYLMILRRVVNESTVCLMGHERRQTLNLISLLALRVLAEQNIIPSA

T3: GST-tagged FAM46D (residues 7-340) (human, UniProt Q8NEK8 7-340)
T3 sequence (looked up): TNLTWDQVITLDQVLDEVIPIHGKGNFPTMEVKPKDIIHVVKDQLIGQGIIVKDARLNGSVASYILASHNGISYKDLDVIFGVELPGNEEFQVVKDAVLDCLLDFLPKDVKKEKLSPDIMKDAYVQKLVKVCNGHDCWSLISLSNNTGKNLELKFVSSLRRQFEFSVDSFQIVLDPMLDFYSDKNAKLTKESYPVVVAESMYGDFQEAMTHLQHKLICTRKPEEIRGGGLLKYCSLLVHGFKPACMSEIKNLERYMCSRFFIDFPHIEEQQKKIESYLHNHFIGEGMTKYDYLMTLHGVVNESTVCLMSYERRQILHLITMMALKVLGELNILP

T4: GST-tagged FAM46C (residues 16-358) (human, UniProt Q5VWP2 16-358)
T4 sequence (looked up): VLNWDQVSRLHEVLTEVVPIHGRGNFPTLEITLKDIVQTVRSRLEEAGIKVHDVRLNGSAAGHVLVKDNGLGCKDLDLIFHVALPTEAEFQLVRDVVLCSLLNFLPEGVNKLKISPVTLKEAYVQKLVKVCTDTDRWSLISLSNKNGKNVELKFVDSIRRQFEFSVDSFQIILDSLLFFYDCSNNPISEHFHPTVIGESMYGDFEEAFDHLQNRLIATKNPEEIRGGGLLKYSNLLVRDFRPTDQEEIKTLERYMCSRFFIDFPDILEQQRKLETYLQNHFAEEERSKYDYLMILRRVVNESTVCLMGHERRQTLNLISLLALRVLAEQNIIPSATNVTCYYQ


Experiments:
[1] = target: T1, human FAM46C (residues 16-358), NTase …; assay: crystal structure
[2] = target: T2, FAM46C E166Q/F193D/F206D (residues …); assay: crystal structure
[3] = target: T3, GST-tagged FAM46D (residues 7-340); assay: pull-down
[4] = target: T4, GST-tagged FAM46C (residues 16-358); assay: pull-down

| binding result [1] | binding result [2] | binding result [3] | binding result [4] | Binder |
| --- | --- | --- | --- | --- |
| binds | binds | binds | binds | CPB1-2 of human PLK4 (residues 580-810) (domain or fragment, UniProt O00444 580-810, looked up) WGYQNRTLRSITSPLVAHRLKPIRQKTKKAVVSILDSEEVCVELVKEYASQEYVKEVLQISSDGNTITIYYPNGGRGFPLADRPPSPTDNISRYSFDNLPEKYWRKYQYASRFVQLVRSKSPKITYFTRYAKCILMENSPGADFEVWFYDGVKIHKTEDFIQVIEKTGKSYTLKSESEVNSLKEEIKMYMDHANEGHRICLALESIISEEERKTRSAPFFPIIIGRKPGST |
|  |  |  | binds | CPB1-2 of human PLK4 (residues 580-810) N669R (domain or fragment, UniProt O00444 580-810, looked up) WGYQNRTLRSITSPLVAHRLKPIRQKTKKAVVSILDSEEVCVELVKEYASQEYVKEVLQISSDGNTITIYYPNGGRGFPLADRPPSPTDRISRYSFDNLPEKYWRKYQYASRFVQLVRSKSPKITYFTRYAKCILMENSPGADFEVWFYDGVKIHKTEDFIQVIEKTGKSYTLKSESEVNSLKEEIKMYMDHANEGHRICLALESIISEEERKTRSAPFFPIIIGRKPGST |
